# Source: the supplement of paper PMC5998384
# Columns and labels:
# HeLa Kyoto [1] = assay: melting temperature (median over replicates), in situ; higher = more thermally stable
# HeLa Kyoto [2] = assay: solubility change mitosis vs G1/S (difference of NP-40 vs SDS log2 ratios) (log2 ratio difference); higher = more soluble in mitosis
# HeLa Kyoto [3] = assay: solubility in G1/S (NP-40 vs SDS abundance) (log2 ratio); higher = more soluble; conditions: cell cycle stage: G1/S
# 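Throughout, for melting temperature (median over replicates), in situ: HeLa Kyoto cells synchronized by double thymidine or nocodazole block, proteins quantified by TMT10plex mass spectrometry, three independent biological replicates.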
# 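Throughout, for solubility change mitosis vs G1/S (difference of NP-40 vs SDS log2 ratios): synchronized HeLa Kyoto cells (double thymidine block for G1/S, nocodazole release for mitosis), protein amounts in NP-40 versus SDS lysates quantified by mass spectrometry, three biological replicates.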
# 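Throughout, for solubility in G1/S (NP-40 vs SDS abundance): HeLa Kyoto cells arrested at G1/S by double thymidine block, proteins quantified by TMT10plex mass spectrometry in mild NP-40 versus SDS extracts, three biological replicates.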
Sequence,melting temperature (HeLa Kyoto [1]; cell cycle stage: G1/S),melting temperature (HeLa Kyoto [1]; cell cycle stage: mitosis),solubility change mitosis (log2) (HeLa Kyoto [2]),solubility in G1/S (log2) (HeLa Kyoto [3])
MAMSFEWPWQYRFPPFFTLQPNVDTRQKQLAAWCSLVLSFCRLHKQSSMTVMEAQESPLFNNVKLQRKLPVESIQIVLEELRKKGNLEWLDKSKSSFLIMWRRPEEWGKLIYQWVSRSGQNNSVFTLYELTNGEDTEDEEFHGLDEATLLRALQALQQEHKAEIITVSDGRGVKFF [VPS25],51.2 °C,51.3 °C,-0.086,-0.0882
MAMVVSTWRDPQDEVPGSQGSQASQAPPVPGPPPGAPHTPQTPGQGGPASTPAQTAAGGQGGPGGPGSDKQQQQQHIECVVCGDKSSGKHYGQFTCEGCKSFFKRSVRRNLSYTCRANRNCPIDQHHRNQCQYCRLKKCLKVGMRREAVQRGRMPPTQPTHGQFALTNGDPLNCHSYLSGYISLLLRAEPYPTSRFGSQCMQPNNIMGIENICELAARMLFSAVEWARNIPFFPDLQITDQVALLRLTWSELFVLNAAQCSMPLHVAPLLAAAGLHASPMSADRVVAFMDHIRIFQEQVEKLKALHVDSAEYSCLKAIVLFTSDACGLSDVAHVESLQEKSQCALEEYVRSQYPNQPTRFGKLLLRLPSLRTVSSSVIEQLFFVRLVGKTPIETLIRDMLLSGSSFNWPYMAIQ [NR2F2],,50.3 °C,-0.152,-0.00984
MAQEFVNCKIQPGKVVVFIKPTCPYCRRAQEILSQLPIKQGLLEFVDITATNHTNEIQDYLQQLTGARTVPRVFIGKDCIGGCSDLVSLQQSGELLTRLKQIGALQ [GLRX],54.7 °C,53.4 °C,0.0467,0.253
MAQRLLLRRFLASVISRKPSQGQWPPLTSRALQTPQCSPGGLTVTPNPARTIYTTRISLTTFNIQDGPDFQDRVVNSETPVVVDFHAQWCGPCKILGPRLEKMVAKQHGKVVMAKVDIDDHTDLAIEYEVSAVPTVLAMKNGDVVDKFVGIKDEDQLEAFLKKLIG [TXN2],53.5 °C,52.9 °C,0.017,0.576
MAQSINITELNLPQLEMLKNQLDQEVEFLSTSIAQLKVVQTKYVEAKDCLNVLNKSNEGKELLVPLTSSMYVPGKLHDVEHVLIDVGTGYYVEKTAEDAKDFFKRKIDFLTKQMEKIQPALQEKHAMKQAVMEMMSQKIQQLTALGAAQATAKA [PFDN5],54.4 °C,53.1 °C,0.784,-0.425
MARDLIGPALPPGFKARGTAEDEERDPSPVAGPALPPNYKSSSSDSSDSDEDSSSLYEEGNQESEEDDSGPTARKQRKNQDDDDDDDDGFFGPALPPGFKKQDDSPPRPIIGPALPPGFIKSTQKSDKGRDDPGQQETDSSEDEDIIGPMPAKGPVNYNVTTEFEKRAQRMKEKLTKGDDDSSKPIVRESWMTELPPEMKDFGLGPRTFKRRADDTSGDRSIWTDTPADRERKAKETQEARKSSSKKDEEHILSGRDKRLAEQVSSYNESKRSESLMDIHHKKLKSKAAEDKNKPQERIPFDRDKDLKVNRFDEAQKKALIKKSRELNTRFSHGKGNMFL [GPALPP1],55.1 °C,56.1 °C,0.245,0.0784
MASPAASSVRPPRPKKEPQTLVIPKNAAEEQKLKLERLMKNPDKAVPIPEKMSEWAPRPPPEFVRDVMGSSAGAGSGEFHVYRHLRRREYQRQDYMDAMAEKQKLDAEFQKRLEKNKIAAEEQTAKRRKKRQKLKEKKLLAKKMKLEQKKQEGPGQPKEQGSSSSAEASGTEEEEEVPSFTMGR [PRKRIP1],53.3 °C,53.6 °C,0.169,0.499
MASQGRRRRPLRRPETVVPGEATETDSERSASSSEEEELYLGPSGPTRGRPTGLRVAGEAAETDSEPEPEPEPTAAPRDLPPLVVQRESAEEAWGTEEAPAPAPARSLLQLRLAESQARLDHDVAAAVSGVYRRAGRDVAALASRLAAAQAAGLAAAHSVRLARGDLCALAERLDIVAGCRLLPDIRGVPGTEPEKDPGPRA [BLOC1S3],52.6 °C,54.9 °C,0.0331,0.568
MASSAASSEHFEKLHEIFRGLHEDLQGVPERLLGTAGTEEKKKLIRDFDEKQQEANETLAEMEEELRYAPLSFRNPMMSKLRNYRKDLAKLHREVRSTPLTATPGGRGDMKYGIYAVENEHMNRLQSQRAMLLQGTESLNRATQSIERSHRIATETDQIGSEIIEELGEQRDQLERTKSRLVNTSENLSKSRKILRSMSRKVTTNKLLLSIIILLELAILGGLVYYKFFRSH [VTI1B],53.5 °C,52.5 °C,0.188,0.392
